Entries after “also recorded” stand apart in the source; their conditions may differ.
Legend:
[1] = upon ingestion; cited from earlier work
[2] = target: FRB and FKBP dimerization (Homo sapiens, UniProt P42345+P62942, T2098L); settings: previously reported A/C-inducible FRB and FKBP systems [31], [33]; cited from earlier work
[3] = target: T1, FKBP (SEQ ID NO: 142) and FRBT2098L (SEQ ID NO: 140) heterodimerization (Homo sapiens, UniProt P42345+P62942+Q04206, T2098L); test: A/C heterodimerizer-inducible HumTAP gene expression system in HEK293 cells; format: cell-based
T1 construct: expressed in transfected cells; host or cells: HEK293
T1 sequence (P62942 with tags, fused parts or gaps, stated change not applied): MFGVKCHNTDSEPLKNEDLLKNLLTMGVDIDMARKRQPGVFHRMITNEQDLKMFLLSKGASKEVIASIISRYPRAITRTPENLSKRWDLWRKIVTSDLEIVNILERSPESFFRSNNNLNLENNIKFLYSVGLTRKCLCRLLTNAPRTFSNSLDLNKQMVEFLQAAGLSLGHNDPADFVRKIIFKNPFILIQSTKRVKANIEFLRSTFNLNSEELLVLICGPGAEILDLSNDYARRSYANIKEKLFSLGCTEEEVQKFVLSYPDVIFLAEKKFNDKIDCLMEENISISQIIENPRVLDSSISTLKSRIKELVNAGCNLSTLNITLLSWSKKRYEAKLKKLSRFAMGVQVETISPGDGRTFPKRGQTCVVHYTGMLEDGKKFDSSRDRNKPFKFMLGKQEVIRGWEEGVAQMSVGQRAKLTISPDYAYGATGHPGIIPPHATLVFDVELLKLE
T1 sequence (P42345+Q04206 fused P42345:T2098L): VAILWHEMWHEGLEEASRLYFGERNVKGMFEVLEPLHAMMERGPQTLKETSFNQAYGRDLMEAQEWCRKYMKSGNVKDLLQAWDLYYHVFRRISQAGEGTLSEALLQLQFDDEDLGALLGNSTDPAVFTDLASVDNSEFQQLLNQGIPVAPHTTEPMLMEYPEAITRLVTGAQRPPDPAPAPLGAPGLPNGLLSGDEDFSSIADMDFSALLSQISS
Excerpt: One well-characterized small-molecule based dimerization system is based on the rapamycin analog A/C (C16-(S)-7-methylindolerapamycin) that induces heterodimerization between the human proteins FK506-binding protein 12 (FKBP; SEQ ID NO: 142) and the FKBP12-rapamycin binding domain (FRB) mutant FRBT2098L (SEQ ID NO: 140), [31]. To achieve A/C heterodimerizer-inducible gene expression, the inventors fused FKBP (SEQ ID NO: 142) to the N-terminus of MTERF158-399 (SEQ ID NO: 1) and FRB (SEQ ID NO: 140) to the C-terminus of different transactivation domains (FIG. 10A). […] In accordance with the results described above, chimeric transactivation domains mediated higher maximal output expression levels than RelA430-551.
The inventors reasoned that in the present system, dimerization might be hindered by either FRB's or FKBP's fusion partner and investigated whether the addition of linkers between the protein domains might impact the EC50 value (FIG. 10 D). A combination of the cMyc nuclear localization signal (NLS) (SEQ ID NO: 122) linking MTERF158-399 and FKBP, and the rigid linker AP6 (SEQ ID NO: 120) linking FRB and RelA430-551 led to a reduction in EC50 to ~60 nM while also increasing maximal output ~3-fold over the variant without linkers and RelA430-551 as TAD (FIG. 10 D).

[4] = target: T2, MTERF1 58-399::FoxoTAD (Homo sapiens, UniProt Q99551 SEQ:1-342); test: cell_activity; HEK293 reporter; TAD effect; settings: tags: TAD fusion
T2 chain: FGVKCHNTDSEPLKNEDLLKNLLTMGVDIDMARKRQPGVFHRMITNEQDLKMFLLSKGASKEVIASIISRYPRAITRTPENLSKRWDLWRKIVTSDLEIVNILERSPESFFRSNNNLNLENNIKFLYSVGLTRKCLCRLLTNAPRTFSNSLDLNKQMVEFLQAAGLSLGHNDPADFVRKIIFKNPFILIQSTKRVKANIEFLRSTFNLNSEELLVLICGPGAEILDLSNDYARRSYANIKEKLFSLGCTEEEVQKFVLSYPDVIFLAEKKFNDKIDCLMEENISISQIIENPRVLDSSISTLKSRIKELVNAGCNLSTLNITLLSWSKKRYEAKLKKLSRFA

[5] = target: T3, MTERF1 58-399::LMSTEN (Homo sapiens, UniProt Q99551 SEQ:1-342); test: cell_activity; HEK293 reporter; TAD effect; settings: tags: TAD fusion
T3 chain: T2 chain

[6] = target: T4, MTERF1 58-399::FoxoTAD-LMSTEN-TA1 (Homo sapiens, UniProt Q99551 SEQ:1-342); test: cell_activity; HEK293 reporter; settings: tags: TAD fusion
T4 chain: T2 chain
Excerpt: (§1) Upon co-transfection of HEK293 cells with plasmids encoding pEF1a-driven expression of the fusion HumTAPs, a Response Element-driven mCerulean reporter protein, and a mCherry transfection control, all peptides derived from RelA except TA1 mediated high levels of reporter gene expression. Including a larger fraction of the RelA protein led to higher reporter expression. Conversely, the core transactivation domains TA1, WW, ZNF473 KRAB, and NucRecCoAct mediated little to no reporter expression.
(§2) Similarly, two copies of FoxoTAD (SEQ ID NO: 33) mediated 20-fold more mCerulean expression than just one FoxoTAD copy and ~2-fold more than the benchmark RelA₄₃₀₋₅₅₁ TAD. This effect was not as pronounced for the LMSTEN domain for which two copies (SEQ ID NO: 196) mediated ~2.7-fold more reporter expression than one copy. Fusing FoxoTAD with LMSTEN (SEQ ID NO: 54), LMSTEN with TA1 (SEQ ID NO: 56), or FoxoTAD with TA1 (SEQ ID NO: 58) yields TADs that are at the same time smaller and stronger than the benchmark RelA₄₃₀₋₅₅₁ TAD. A chimeric TAD consisting of FoxoTAD, LMSTEN, and TA1 (SEQ ID NO: 52) yields 3.7 times the amount of reporter gene expression than RelA₄₃₀₋₅₅₁ (FIG. 9 C). It is therefore possible to engineer both stronger and smaller transactivation domains than the commonly used RelA₄₃₀₋₅₅₁ without incorporating protein domains of non-human origin. […]

[7] = target: T5, MTERF1 58-399::2xFoxoTAD (Homo sapiens, UniProt Q99551 SEQ:1-342); test: cell_activity; HEK293 reporter; settings: tags: TAD fusion
T5 chain: T2 chain
Excerpt: as §1, §2

[8] = target: T6, MTERF1 58-399::2xTA1 (Homo sapiens, UniProt Q99551 SEQ:1-342); test: cell_activity; HEK293 reporter; settings: tags: TAD fusion
T6 chain: T2 chain

[9] = system: Response Element-driven (SEQ ID NO: 48) mCerulean fluorescent reporter; test: Orthogonality: MTF-driven reporter with or without WT MTERF1 co-expression; format: cell-based, human; settings: HEK293; MTF construct plus reporter SEQ ID NO: 48, with or without EF1a-driven WT MTERF1
Excerpt: To assess the orthogonality of the host towards the Response Element-driven Gene of Interest (Gol), the inventors transfected a HumTAP representative MTF (SEQ ID NO: 100) with a Response Element-driven (SEQ ID NO: 48) mCerulean fluorescent reporter, with and without the construct encoding a wild-type MTERF1 to assess whether it might interfere with the induction of the Gol by MTF (FIG. 7B).

[10] = system: endogenous human genes in HEK293 cells; test: RNA-Seq differential gene expression analysis of transfected HEK293 cells versus junk plasmid (edgeR); format: cell-based; settings: transfected HEK293 cells vs "junk" plasmid, FDR<0.5, fold-change of at least 2
Method: The inventors therefore used RNA-Seq to investigate whether MTF (SEQ ID NO: 100) activates the expression of endogenous human genes. The inventors also transfected WT MTERF1 (SEQ ID NO: 108) to compare the gene-regulatory effects of MTERF1 to those of MTF. Differential gene expression analysis was performed against cells that were transfected with a “junk” plasmid using the edgeR software package for R [24]. […] Future investigations will assess the dose-dependency of differentially expressed (DE) genes on MTF amount and may help clarify the origin of DE genes.

Chain of FRB and FKBP dimerization (P62942 whole entry): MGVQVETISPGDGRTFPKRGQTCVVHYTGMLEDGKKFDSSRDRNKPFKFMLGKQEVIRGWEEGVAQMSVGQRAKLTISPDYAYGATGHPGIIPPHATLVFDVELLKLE
Chain of FRB and FKBP dimerization (P42345 2012-2144 T2098L): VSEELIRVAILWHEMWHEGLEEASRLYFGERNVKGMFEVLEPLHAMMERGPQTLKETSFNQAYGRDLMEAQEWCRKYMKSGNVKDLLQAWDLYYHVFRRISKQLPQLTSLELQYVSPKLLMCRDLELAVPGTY

In the case of `CO[C@H]1C[C@@H]2CC[C@@H](C)[C@@](O)(O2)C(=O)C(=O)N2CCCC[C@H]2C(=O)O[C@H]([C@H](C)C[C@@H]2CC[C@@H](O)[C@H](OC)C2)CC(=O)[C@H](C)/C=C(\C)[C@@H](O)[C@@H](OC)C(=O)[C@H](C)C[C@H](C)/C=C/C=C/C=C/1C` [rapamycin], the physiological blood concentrations [1] is listed as ~ 22 nM.

In the case of “C16-(S)-7-methylindolerapamycin [A/C heterodimerizer]”, the EC50 [2] is given as ~1 nM, the “mCerulean levels versus inducer concentration” value ([3]; HEK cells co-transfected with MTERF158-399::FKBP and FRB fusions to the strongest TADs, FIG. 10C) is given as “increased dose-dependently” and the EC50 ([3]; cMyc NLS linking MTERF158-399 and FKBP, AP6 linker linking FRB and RelA430-551, FIG. 10D) is given as ~60 nM.

B1: 5xRE, 0 bp spacing (dsDNA)
DNA 1: TAAGATGGCAGAGCCCGGTAATTAAGATGGCAGAGCCCGGTAATTAAGATGGCAGAGCCCGGTAATTAAGATGGCAGAGCCCGGTAATTAAGATGGCAGAGCCCGGTAAT
DNA 2: ATTACCGGGCTCTGCCATCTTAATTACCGGGCTCTGCCATCTTAATTACCGGGCTCTGCCATCTTAATTACCGGGCTCTGCCATCTTAATTACCGGGCTCTGCCATCTTA
With B1 the binding signal [4] was 8.4 fold lower than MTF, the binding signal [5] was 11.3 fold lower than MTF and the binding signal [6] was 3.7 fold vs MTF. It also gave a binding signal [7] of ~2 fold vs MTF and a binding signal [8] of 201 fold vs one TA1 copy.

B2: MTF: fusion of human MTERF1 amino acids 58-399 to RELA amino acids 430-551; prototype HumTAP synthetic transcription factor (protein)
chain: MFGVKCHNTDSEPLKNEDLLKNLLTMGVDIDMARKRQPGVFHRMITNEQDLKMFLLSKGASKEVIASIISRYPRAITRTPENLSKRWDLWRKIVTSDLEIVNILERSPESFFRSNNNLNLENNIKFLYSVGLTRKCLCRLLTNAPRTFSNSLDLNKQMVEFLQAAGLSLGHNDPADFVRKIIFKNPFILIQSTKRVKANIEFLRSTFNLNSEELLVLICGPGAEILDLSNDYARRSYANIKEKLFSLGCTEEEVQKFVLSYPDVIFLAEKKFNDKIDCLMEENISISQIIENPRVLDSSISTLKSRIKELVNAGCNLSTLNITLLSWSKKRYEAKLKKLSRFAQAGEGTLSEALLQLQFDDEDLGALLGNSTDPAVFTDLASVDNSEFQQLLNQGIPVAPHTTEPMLMEYPEAITRLVTGAQRPPDPAPAPLGAPGLPNGLLSGDEDFSSIADMDFSALLSQISS
In the case of B2, the “Gol fluorescence levels with or without concomitant WT MTERF1 expression” value [9] is reported as “no difference in Gol fluorescence levels” and the “DE genes, Regulation Up (up-regulated gene, Symbol)” value [10] is reported as “Novel Transcript; also recorded: USP17L2; also recorded: HSPA7; also recorded: ADGRA1”.
